Reference: paper PMC2582609

Experiments:
[1] = molecular target: NIPBL R1856G (CdLS missense mutation) GAL4-DNA-binding domain fusion (human) (UniProt Q6KC79); assay: two-hybrid
[2] = molecular target: NIPBL R1895T (CdLS missense mutation) GAL4-DNA-binding domain fusion (human) (UniProt Q6KC79); assay: two-hybrid

β-galactosidase activity compared to the wild-type construct [1]: 50% | β-galactosidase activity compared to the wild-type construct [2]: 50%
Substance: full-length HDAC3 fused to the GAL4-activating domain (from UniProt O15379 1-428) (enzyme)
